Laboratory results as given in paper PMC3673036 (Bioscience Reports, 2013).

Assays:
EphB2 [1] = molecular target: T1, EphB2 (Homo sapiens, UniProt P29323); test: ADP-Glo luminescent kinase assay; format: biochemical; details: ATP and poly-(Glu:Tyr) […] at Km of each kinase; MgCl2, Hepes pH […]°C, […] min, […] DMSO; unreliable: below assay tight binding limit of about […]
T1 construct: kinase domain 604-898 without juxtamembrane region; N-terminal His6-TEV tag cleaved (GSS left); E. coli BL21 Star (DE3), PTP1B co-expressed; unphosphorylated; synthetic codon-optimized gene
T1 sequence (P29323 604-898): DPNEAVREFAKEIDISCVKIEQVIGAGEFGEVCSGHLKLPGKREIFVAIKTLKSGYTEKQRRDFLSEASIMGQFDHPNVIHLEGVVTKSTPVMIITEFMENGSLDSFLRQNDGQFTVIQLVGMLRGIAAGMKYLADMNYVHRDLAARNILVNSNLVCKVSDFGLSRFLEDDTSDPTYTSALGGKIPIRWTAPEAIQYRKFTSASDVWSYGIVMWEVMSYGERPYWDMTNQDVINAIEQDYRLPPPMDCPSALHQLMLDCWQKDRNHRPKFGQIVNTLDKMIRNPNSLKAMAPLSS
Text: ADP-Glo luminescent kinase assay on EphB2

EphB1 = molecular target: T2, EphB1 (Homo sapiens, UniProt P54762); test: ADP-Glo luminescent kinase assay; format: biochemical; details: ATP and poly-(Glu:Tyr) […] at Km of each kinase; MgCl2, Hepes pH […]°C, […] min, […] DMSO; unreliable: below assay tight binding limit of about […]
T2 construct: kinase domain 602-896 without juxtamembrane region; N-terminal His6-TEV tag cleaved (GSS left); E. coli BL21 Star (DE3), PTP1B co-expressed; unphosphorylated; synthetic codon-optimized gene
T2 sequence (P54762 602-896): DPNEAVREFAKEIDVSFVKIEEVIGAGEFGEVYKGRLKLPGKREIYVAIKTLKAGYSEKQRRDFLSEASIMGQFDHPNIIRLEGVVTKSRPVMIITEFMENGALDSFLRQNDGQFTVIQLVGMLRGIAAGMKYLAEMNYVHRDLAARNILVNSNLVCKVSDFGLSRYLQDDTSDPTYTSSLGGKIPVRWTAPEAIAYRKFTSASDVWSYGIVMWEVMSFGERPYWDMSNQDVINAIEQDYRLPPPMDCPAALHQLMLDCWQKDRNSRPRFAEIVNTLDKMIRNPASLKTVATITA
Text: ADP-Glo luminescent kinase assay on EphB1

EphB2 [2] = molecular target: T1, EphB2; test: ADP-Glo luminescent kinase assay, Michaelis-Menten fit; format: biochemical; details: […] poly-(Glu:Tyr) […], MgCl2, Hepes pH […]°C; read-out: Km ATP
Text: ADP-Glo luminescent kinase assay, Michaelis-Menten fit on EphB2

[3] = substrate: Nc1ncnc2c1ncn2[C@@H]1O[C@H](COP(=O)(O)OP(=O)(O)OP(=O)(O)O)[C@@H](O)[C@H]1O; test: as above; format: biochemical, Homo sapiens; details: […] poly-(Glu:Tyr) […], MgCl2, Hepes pH […]
Text: ADP-Glo luminescent kinase assay, Michaelis-Menten fit on EphB1

[4] = substrate: Nc1ncnc2c1ncn2[C@@H]1O[C@H](COP(=O)(O)OP(=O)(O)OP(=O)(O)O)[C@@H](O)[C@H]1O; test: as above; format: biochemical, Homo sapiens; details: […] poly-(Glu:Tyr) […], MgCl2, Hepes pH […]; remark: listed apart in the source
Text: ADP-Glo luminescent kinase assay, Michaelis-Menten fit on EphB3

[5] = substrate: Nc1ncnc2c1ncn2[C@@H]1O[C@H](COP(=O)(O)OP(=O)(O)OP(=O)(O)O)[C@@H](O)[C@H]1O; test: as above; format: biochemical, Homo sapiens; details: […] poly-(Glu:Tyr) […], MgCl2, Hepes pH […]; remark: listed apart in the source
Text: ADP-Glo luminescent kinase assay, Michaelis-Menten fit on EphB4

**Q.** For `Cc1nc(Nc2ncc(C(=O)Nc3c(C)cccc3Cl)s2)cc(N2CCN(CCO)CC2)n1` [Dasatinib], which “EphB2 / IC50” value (EphB2 [1]) is on record?
**A.** 7 nM

**Q.** And the “EphB1 / IC50” value (EphB1)?
**A.** 10 nM

**Q.** How did the Km (EphB2 [2]) turn out when `Nc1ncnc2c1ncn2[C@@H]1O[C@H](COP(=O)(O)OP(=O)(O)OP(=O)(O)O)[C@@H](O)[C@H]1O` [ATP] was run?
**A.** 751 ± 80 µM

B1: EphB1 (Homo sapiens) (protein)
chain: DPNEAVREFAKEIDVSFVKIEEVIGAGEFGEVYKGRLKLPGKREIYVAIKTLKAGYSEKQRRDFLSEASIMGQFDHPNIIRLEGVVTKSRPVMIITEFMENGALDSFLRQNDGQFTVIQLVGMLRGIAAGMKYLAEMNYVHRDLAARNILVNSNLVCKVSDFGLSRYLQDDTSDPTYTSSLGGKIPVRWTAPEAIAYRKFTSASDVWSYGIVMWEVMSFGERPYWDMSNQDVINAIEQDYRLPPPMDCPAALHQLMLDCWQKDRNSRPRFAEIVNTLDKMIRNPASLKTVATITA
notes: kinase domain 602-896 without juxtamembrane region; N-terminal His6-TEV tag cleaved (GSS left); E. coli BL21 Star (DE3), PTP1B co-expressed; unphosphorylated; synthetic codon-optimized gene
**Q.** With B1 as the molecule, how does the Km [3] read?
**A.** 555 ± 36 µM

**Q.** And the kcat [3]?
**A.** 0.80 ± 0.02 s⁻¹

B2: EphB3 (Homo sapiens) (protein)
chain: DPNEAVREFAKEIDVSCVKIEEVIGAGEFGEVCRGRLKQPGRREVFVAIKTLKVGYTERQRRDFLSEASIMGQFDHPNIIRLEGVVTKSRPVMILTEFMENCALDSFLRLNDGQFTVIQLVGMLRGIAAGMKYLSEMNYVHRDLAARNILVNSNLVCKVSDFGLSRFLEDDPSDPTYTSSLGGKIPIRWTAPEAIAYRKFTSASDVWSYGIVMWEVMSYGERPYWDMSNQDVINAVEQDYRLPPPMDCPTALHQLMLDCWVRDRNLRPKFSQIVNTLDKLIRNAASLKVIASAQS
notes: kinase domain 616-910 without juxtamembrane region; N-terminal His6-TEV tag cleaved (GSS left); E. coli BL21 Star (DE3), PTP1B co-expressed; unphosphorylated; synthetic codon-optimized gene
**Q.** Which results are given for B2?
**A.** Km [4]: 506 ± 48 µM; kcat [4]: 0.43 ± 0.01 s⁻¹

B3: EphB4 (Homo sapiens) (protein)
chain: DPNEAVREFAKEIDVSYVKIEEVIGAGEFGEVCRGRLKAPGKKESCVAIKTLKGGYTERQRREFLSEASIMGQFEHPNIIRLEGVVTNSMPVMILTEFMENGALDSFLRLNDGQFTVIQLVGMLRGIASGMRYLAEMSYVHRDLAARNILVNSNLVCKVSDFGLSRFLEENSSDPTYTSSLGGKIPIRWTAPEAIAFRKFTSASDAWSYGIVMWEVMSFGERPYWDMSNQDVINAIEQDYRLPPPPDCPTSLHQLMLDCWQKDRNARPRFPQVVSALDKMIRNPASLKIVARENG
notes: kinase domain 598-892 without juxtamembrane region; N-terminal His6-TEV tag cleaved (GSS left); E. coli BL21 Star (DE3), PTP1B and GroES/GroEL co-expressed; unphosphorylated; synthetic codon-optimized gene
**Q.** For B3, which Km [5] is on record?
**A.** 497 ± 39 µM

**Q.** What about the kcat [5] of the same molecule?
**A.** 0.51 ± 0.01 s⁻¹

B4: EphB3 (Homo sapiens; C717G) (protein)
chain: DPNEAVREFAKEIDVSCVKIEEVIGAGEFGEVCRGRLKQPGRREVFVAIKTLKVGYTERQRRDFLSEASIMGQFDHPNIIRLEGVVTKSRPVMILTEFMENGALDSFLRLNDGQFTVIQLVGMLRGIAAGMKYLSEMNYVHRDLAARNILVNSNLVCKVSDFGLSRFLEDDPSDPTYTSSLGGKIPIRWTAPEAIAYRKFTSASDVWSYGIVMWEVMSYGERPYWDMSNQDVINAVEQDYRLPPPMDCPTALHQLMLDCWVRDRNLRPKFSQIVNTLDKLIRNAASLKVIASAQS
notes: as for B2
**Q.** B4 was tested. Which Km [4] did it give?
**A.** 659 ± 67 µM

**Q.** And the kcat [4]?
**A.** 0.86 ± 0.03 s⁻¹
